Assay results from US8697386B2, “Methods and compositions for modulating hepsin activation of macrophage-stimulating protein” (Genentech, Inc., priority 2009, dated 2014).

How the values were obtained:
[1] = biological target: T1, cell surface expressed hepsin in LnCap-34 cells (Homo sapiens, UniProt P05981); experiment: Pro-MSP activation by cell surface expressed hepsin in LnCap-34 cells; type: cell-based; details: 1 μM inhibitor, 15 minutes preincubation, 125I-pro-MSP 25 μg/ml, 3 hours, 37° C.
T1 construct: expressed in transfected cells; host or cells: LnCaP-34 cells
Experimental: Confluent LnCap-34 cells cultured in 24-well plates were washed with serum-free RPMI-1640 medium and were incubated either alone or with different anti-hepsin inhibitors (1 μM of anti-hepsin antibody Fab25/1 μM of KD1/1 μM of Ac-KQLR-cmk (‘KLQR” disclosed as SEQ ID NO:10)) in serum-free RPMI-1640 medium for 15 minutes at 37° C. prior to addition of 125I-labeled pro-MSP (25 μg/ml). After incubation for 3 hours at 37° C., aliquots were removed and analyzed by SDS-PAGE (4-20% gradient gel) (Invitrogen, Carlsbad, Calif.) followed by exposure to X-ray films.

peritoneal macrophages = experiment: Peritoneal macrophage chemotaxis assay; type: cell-based, mouse; details: pre-treatment with inhibitor
Experimental: Peritoneal macrophage chemotaxis and morphology change assay: Murine peritoneal resident macrophages were obtained from C57BL/6 mice by washing the peritoneal cavity with 15 ml per mouse of serum-free RPMI-1640 medium. Cells were washed and resuspended in RPMI-1640 medium containing 25 mM Hepes at a concentration of 1×10^6 cells·mL^−1. The macrophage chemotaxis assay was performed using a QCM chemotaxis assay kit with a pore size of 5 μm (Millipore). One hundred microliters of the peritoneal macrophage suspension (i.e. 10^5 cells) were added to the upper wells of the Chemotaxis cells. The bottom wells were filled with RPMI-1640 medium containing purified pro-MSP either alone or hepsin-treated at 37 C for 2 hours. The recombinant active form of human MSP (R&D Systems) was used as a positive control. After incubation at 37 C for 4 hours, the cells on the upper surface of the membrane were wiped off with a cotton swab and the migrated cells were detached using detachment buffer as per manufacturer's recommendations. Aliquots from different wells were incubated with a mixture of lysis buffer and CYPRO dye for 15 minutes. Migration was quantified by measuring the fluorescence using a microplate reader (Spectramax-M5, Molecular devices, Sunnyvale, Calif.) at an excitation wavelength of 480 nm and emission wavelength of 520 nm.

bone marrow macrophages = experiment: Inhibition of nitric oxide (NO) synthesis in bone marrow macrophages; type: cell-based, mouse; details: pro-MSP 10 ng/ml mixed with hepsin 1 nM and Fab25 500 nM, 24 hours, LPS
Experimental: Inhibition of NO synthesis by mature MSP: Bone marrow cells obtained from collected mouse femurs were pipetted to a single-cell suspension and then spun down. Red blood cells were lysed by incubation with erythrocyte lysis buffer for 5 minutes at room temperature. Cells were then suspended in macrophage differentiation medium (DMEM with glutamine containing 10% FBS, Pen/Strep and 50 ng/ml recombinant mCSF-1). Cells were then plated onto sterile 24-well non-tissue culture dishes. Medium was changed the next day and subsequently every 2 days. After 6 days in culture, the macrophages were mature and these mature cells were washed in serum-free DMEM and further incubated for 2 hours. Different reactions (total volume 300 μL) as indicated in the figure consisting of recombinant MSP (10 ng/ml), pro-MSP (10 ng/ml), hepsin (1 nM) and Fab25 (500 nM) were added to the respective wells and cultured for 24 hours at 37° C. in a tissue culture incubator. NO production was quantified using Griess reaction (Molecular Probes) according to manufacturer's recommendation.

T1 sequence (P05981 whole entry): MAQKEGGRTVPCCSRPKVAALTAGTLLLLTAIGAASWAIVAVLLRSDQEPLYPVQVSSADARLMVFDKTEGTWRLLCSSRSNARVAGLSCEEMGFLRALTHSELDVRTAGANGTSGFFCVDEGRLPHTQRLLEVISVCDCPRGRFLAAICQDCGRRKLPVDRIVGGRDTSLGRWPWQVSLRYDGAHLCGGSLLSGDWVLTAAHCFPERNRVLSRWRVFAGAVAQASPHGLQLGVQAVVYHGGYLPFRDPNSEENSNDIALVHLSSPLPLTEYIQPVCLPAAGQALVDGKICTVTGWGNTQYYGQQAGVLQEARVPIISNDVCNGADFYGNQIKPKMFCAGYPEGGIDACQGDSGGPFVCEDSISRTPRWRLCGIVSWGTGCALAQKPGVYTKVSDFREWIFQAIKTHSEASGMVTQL

B1: Fab25: anti-hepsin antibody Fab that blocks hepsin activation of pro-MSP (antibody, V domains shown)
VH: EVQLVESGGGLVQPGGSLRLSCAASGFNFSYSYMHWVRQAPGKGLEWVASIYSYYGSTYYADSVKGRFTISADTSKNTAYLQMNSLRAEDTAVYYCARSDSWSYKSGYTQKIYSKGLDYWGQGTLVTVSS
VL: DIQMTQSPSSLSASVGDRVTITCRASQSVSSAVAWYQQKPGKAPKLLIYSASSKGVPSRFSGSRSGTDFTLTISSLQPEDFATYYCQQYYSSYYLLTFGQGTKVEIK
blocking of pro-MSP proteolytic cleavage by cell surface hepsin [1]: effectively blocked
effect of anti-hepsin inhibitor pre-treatment on migration of macrophages induced by hepsin-treated pro-MSP (peritoneal macrophages): marked reduction
effect of anti-hepsin antibody on attenuation of NO production by hepsin-activated MSP (bone marrow macrophages): did not inhibit robust production of nitric oxide
effect of anti-hepsin antibody on attenuation of NO production by hepsin-activated MSP (bone marrow macrophages; listed as anti-hepsin antibody): completely inhibited
